Results from patent publication US20190315845A1 (ANNEXON, published 2019).
Numbering of substitutions follows the chain as printed. Names and notes keep the numbering of the source. Like-named read-outs stand apart in the source and are kept apart here. Values belong to the binder of their own block, whether it stands above or below them.

What was measured:
human C1q [1] = target: T1, human C1q (human, UniProt P02745 23-245; P02746 28-253; P02747 29-245); assay: competition ELISA, plate-coated human C1q; competitor biotinylated mouse M1 (0.02 µg/ml); IC50 normalised to chimeric M1
T1 construct: Purified human C1q protein (plate-coated in ELISA, ligand or analyte in SPR, in human serum in CH50); also called hC1q; complement factor C1q
Description: (§1) The binding of humanized M1 variants to human C1q was analyzed by competition ELISA. A three-fold dilution series of test antibody (5 μg/ml to 0.002 μg/ml) was premixed with a constant concentration of biotinylated mouse M1 antibody (0.02 μg/ml, final concentration) before incubating for 1 hour at 37° C. with shaking on plates pre-coated with human C1q at 1.0 μg/ml. The binding of mouse M1 antibody was detected with streptavidin-peroxidase conjugate (Sigma-Aldrich cat. no. 55512) and TMB (3,3′,5,5′-tetramethylbenzidine) substrate (Thermo Scientific cat. no. 34029). The reaction was stopped with 1M HCl, absorbance read at 450 nm on a Dynex Technologies MRX TC II plate reader and the binding curves plotted.
The binding curves were used to calculate IC₅₀ values (concentration of test antibody that inhibits labelled competitor binding by 50%) for each antibody normalized to the IC₅₀ of chimeric M1 and antibody yields from NS0 transfectants were also compared (Table 1).

human C1q [2] = target: T1, human C1q; assay: competition ELISA on plate-bound human C1q against biotinylated mouse M1 antibody (0.02 µg/ml); bound biotin-M1 read as OD450
Text: (§2) FIG. 4A, FIG. 4B, FIG. 4C, and FIG. 4D depicts competition ELISA assays for human C1q. A dilution series of purified humanized anti-C1q antibodies were competed against a fixed concentration of biotinylated monoclonal antibody M1 for binding to human C1q. Bound biotinylated M1 antibody was detected using streptavidin-peroxidase conjugate and TMB substrate. FIG. 4A depicts the results with the humanized antibodies VH1/Vκ1, VH1/Vκ2, and VH1/Vκ3. FIG. 4B depicts the results with the humanized antibodies VH1/Vκ4, VH2/Vκ1, VH2/Vκ2, VH2/Vκ3, and VH2/Vκ4. FIG. 4C depicts the results with the humanized antibodies VH3/Vκ1, VH3/Vκ2, VH3/Vκ3, and VH3/Vκ4. FIG. 4D depicts the results with the humanized antibodies VH4/Vκ1, VH4/Vκ2, […], and VH4/Vκ4.
as §1

human C1q [3] = target: T1, human C1q; assay: as above; remark: listed apart in the source
Text: as §2, §1

human C1q [4] = target: T1, human C1q; assay: as above; remark: listed apart in the source
Text: as §2, §1

human C1q [5] = target: T1, human C1q; assay: as above; remark: listed apart in the source
Text: as §2, §1

rat C1q = rat C1q (rat, UniProt P31720 23-245; P31721 26-253; P31722 29-245); assay: cell-based or functional assay
mouse C1q [6] = target: T2, mouse C1q (mouse, UniProt P98086 23-245; P14106 26-253; Q02105 30-246); assay: competition ELISA, plate-coated mouse C1q; competitor biotinylated chimeric M1 (0.03 µg/ml); IC50 normalised to chimeric M1
T2 construct: Purified mouse C1q protein; also called mC1q
Description: (§3) The binding of humanized M1 variants to mouse C1q was analyzed by competition ELISA on four selected antibodies, VH1/Vκ1, VH3/Vκ1, VH3/Vκ4 and VH4/Vκ3. An irrelevant IgG4 (S241P L248E) antibody was also included as a binding control. A three-fold dilution series of test antibody (100 μg/ml to 0.046 μg/ml) was premixed with a constant concentration of biotinylated chimeric M1 antibody (0.03 μg/ml, final concentration) before incubating for 1 hour at 37° C. with shaking on plates pre-coated with mouse C1q at 5.0 μg/ml. The binding of chimeric M1 antibody was detected with streptavidin-peroxidase conjugate (Sigma-Aldrich cat. no. S5512) and TMB substrate (Thermo Scientific cat. no. 34029). The reaction was stopped with 1M HCl, absorbance read at 450 nm on a Dynex Technologies MRX TC II plate reader and the binding curves plotted.
(§4) The binding curves were used to calculate IC₅₀ values for each antibody normalized to the IC₅₀ of chimeric M1 (Table 2).

mouse C1q [7] = target: T2, mouse C1q; assay: competition ELISA on plate-bound mouse C1q against biotinylated chimeric M1 antibody (0.03 µg/ml); bound biotin-chimeric M1 read as OD450
Description: as §3, §4

human C1q [8] = target: T1, human C1q; assay: cell-based or functional assay
human C1q [9] = target: T1, human C1q; assay: SPR Biacore T200, 1:1 model; IgG immobilised (ligand), hC1q analyte; analysis 1
human C1q [10] = target: T1, human C1q; assay: SPR Biacore T200, 1:1 model; IgG immobilised (ligand), hC1q analyte; analysis 2
human C1q [11] = target: T1, human C1q; assay: SPR Biacore T200, 1:1 model; IgG immobilised (ligand), hC1q analyte; mean of 2 analyses
human C1q [12] = target: T1, human C1q; assay: SPR Biacore T200, heterogeneous ligand model, KD1; hC1q immobilised (ligand), IgG analyte
human C1q [13] = target: T1, human C1q; assay: SPR Biacore T200, heterogeneous ligand model, KD2; hC1q immobilised (ligand), IgG analyte
human C1q [14] = target: T1, human C1q; assay: SPR Biacore T200, heterogeneous ligand model, ka1; hC1q immobilised (ligand), IgG analyte
human C1q [15] = target: T1, human C1q; assay: SPR Biacore T200, heterogeneous ligand model, ka2; hC1q immobilised (ligand), IgG analyte
human C1q [16] = target: T1, human C1q; assay: SPR Biacore T200, heterogeneous ligand model, kd1; hC1q immobilised (ligand), IgG analyte
human C1q [17] = target: T1, human C1q; assay: SPR Biacore T200, heterogeneous ligand model, kd2; hC1q immobilised (ligand), IgG analyte
human C1q [18] = target: T1, human C1q; assay: SPR Biacore T200, 1:1 model, single cycle kinetics; hC1q immobilised (ligand), IgG analyte

rat C1q, sequence (P31720 23-245 limits assumed, chain 1 of 3): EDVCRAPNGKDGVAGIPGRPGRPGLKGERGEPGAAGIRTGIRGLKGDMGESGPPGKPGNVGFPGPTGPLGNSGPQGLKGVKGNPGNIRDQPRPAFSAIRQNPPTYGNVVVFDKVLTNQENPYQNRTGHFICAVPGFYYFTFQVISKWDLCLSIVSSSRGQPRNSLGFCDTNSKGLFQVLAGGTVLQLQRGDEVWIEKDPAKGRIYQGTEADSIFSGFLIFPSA
rat C1q, sequence (P31721 26-253 limits assumed, chain 2 of 3): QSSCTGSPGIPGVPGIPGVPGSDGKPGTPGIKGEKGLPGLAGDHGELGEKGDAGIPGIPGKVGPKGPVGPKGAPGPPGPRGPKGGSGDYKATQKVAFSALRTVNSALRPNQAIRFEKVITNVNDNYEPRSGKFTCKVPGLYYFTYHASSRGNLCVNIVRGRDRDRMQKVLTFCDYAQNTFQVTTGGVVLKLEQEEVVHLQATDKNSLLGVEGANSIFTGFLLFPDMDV
rat C1q, sequence (P31722 29-245 limits assumed, chain 3 of 3): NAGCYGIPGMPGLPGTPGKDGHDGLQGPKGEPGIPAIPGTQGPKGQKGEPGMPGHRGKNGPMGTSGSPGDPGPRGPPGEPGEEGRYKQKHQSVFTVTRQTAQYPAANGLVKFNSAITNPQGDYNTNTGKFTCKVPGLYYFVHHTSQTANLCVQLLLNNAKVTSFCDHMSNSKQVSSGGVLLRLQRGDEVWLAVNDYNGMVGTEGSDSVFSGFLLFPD
T2 sequence (P98086 23-245 limits assumed, chain 1 of 3): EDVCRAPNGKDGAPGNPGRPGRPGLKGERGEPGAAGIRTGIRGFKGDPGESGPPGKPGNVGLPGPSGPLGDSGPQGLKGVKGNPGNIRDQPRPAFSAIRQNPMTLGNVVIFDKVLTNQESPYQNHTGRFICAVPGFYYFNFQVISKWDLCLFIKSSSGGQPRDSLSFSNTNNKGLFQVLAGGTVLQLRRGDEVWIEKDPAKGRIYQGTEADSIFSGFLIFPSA
T2 sequence (P14106 26-253 limits assumed, chain 2 of 3): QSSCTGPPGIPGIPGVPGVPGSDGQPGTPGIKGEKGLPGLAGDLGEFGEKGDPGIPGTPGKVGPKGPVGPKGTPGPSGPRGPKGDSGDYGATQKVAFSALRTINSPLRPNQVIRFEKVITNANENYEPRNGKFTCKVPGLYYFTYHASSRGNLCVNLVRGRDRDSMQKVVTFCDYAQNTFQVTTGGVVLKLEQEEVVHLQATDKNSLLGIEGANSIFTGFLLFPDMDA
T2 sequence (Q02105 30-246 limits assumed, chain 3 of 3): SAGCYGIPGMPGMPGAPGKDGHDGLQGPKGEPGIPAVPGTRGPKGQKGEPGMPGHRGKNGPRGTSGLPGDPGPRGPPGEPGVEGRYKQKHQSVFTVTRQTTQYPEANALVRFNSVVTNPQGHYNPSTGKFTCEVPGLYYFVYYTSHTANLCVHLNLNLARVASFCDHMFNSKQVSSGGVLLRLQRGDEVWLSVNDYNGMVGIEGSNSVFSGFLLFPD
T1 sequence (P02745 23-245 limits assumed, chain 1 of 3): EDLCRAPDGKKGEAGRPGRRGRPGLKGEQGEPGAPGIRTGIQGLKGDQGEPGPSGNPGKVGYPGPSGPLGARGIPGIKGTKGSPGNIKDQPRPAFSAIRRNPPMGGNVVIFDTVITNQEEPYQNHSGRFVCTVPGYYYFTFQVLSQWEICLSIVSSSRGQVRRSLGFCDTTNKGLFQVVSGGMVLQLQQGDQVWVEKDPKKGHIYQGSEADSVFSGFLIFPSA
T1 sequence (P02746 28-253 limits assumed, chain 2 of 3): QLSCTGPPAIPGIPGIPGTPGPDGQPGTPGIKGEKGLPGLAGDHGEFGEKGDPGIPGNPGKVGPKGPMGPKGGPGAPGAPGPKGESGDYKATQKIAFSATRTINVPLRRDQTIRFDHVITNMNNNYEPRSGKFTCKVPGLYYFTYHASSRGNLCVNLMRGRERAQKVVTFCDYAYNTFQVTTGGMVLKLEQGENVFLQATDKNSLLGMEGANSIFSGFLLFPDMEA
T1 sequence (P02747 29-245 limits assumed, chain 3 of 3): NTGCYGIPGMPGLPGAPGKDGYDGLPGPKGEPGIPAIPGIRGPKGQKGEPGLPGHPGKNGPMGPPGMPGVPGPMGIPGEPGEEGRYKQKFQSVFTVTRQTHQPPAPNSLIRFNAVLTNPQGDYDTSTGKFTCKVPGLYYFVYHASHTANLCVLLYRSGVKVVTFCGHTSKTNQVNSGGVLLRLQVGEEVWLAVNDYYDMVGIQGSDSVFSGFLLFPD

B1: humanized anti-C1q antibody VH2/Vκ2 (antibody, human IgG4)
heavy: not shown
light: DVQITQSPSSLSASLGERATINCRASKSINKYLAWYQQKPGKANKLLIYSGSTLQSGIPARFSGSGSGTDFTLTISSLEPEDFAMYYCQQHNEYPLTFGQGTKLEIK
notes: Full-length human IgG4 (S241P L248E) / human kappa, expressed in NS0, Protein A purified; not shown: human kappa light chain constant region
- Relative IC50 (human C1q [1]): 1.12 ratio to chimeric M1
- IC50 (read off the curve) (human C1q [2]): ~0.3 µg/mL

B4: humanized anti-C1q antibody VH1/Vκ4 (antibody, human IgG4)
heavy: not shown
light: B1 light with V2I, I4L, N44P
notes: as for B1
- Relative IC50 (human C1q [1]): 0.8 ratio to chimeric M1
- IC50 (read off the curve) (human C1q [2]): ~0.2 µg/mL

B7: humanized anti-C1q antibody VH3/Vκ4 (antibody, human IgG4)
heavy: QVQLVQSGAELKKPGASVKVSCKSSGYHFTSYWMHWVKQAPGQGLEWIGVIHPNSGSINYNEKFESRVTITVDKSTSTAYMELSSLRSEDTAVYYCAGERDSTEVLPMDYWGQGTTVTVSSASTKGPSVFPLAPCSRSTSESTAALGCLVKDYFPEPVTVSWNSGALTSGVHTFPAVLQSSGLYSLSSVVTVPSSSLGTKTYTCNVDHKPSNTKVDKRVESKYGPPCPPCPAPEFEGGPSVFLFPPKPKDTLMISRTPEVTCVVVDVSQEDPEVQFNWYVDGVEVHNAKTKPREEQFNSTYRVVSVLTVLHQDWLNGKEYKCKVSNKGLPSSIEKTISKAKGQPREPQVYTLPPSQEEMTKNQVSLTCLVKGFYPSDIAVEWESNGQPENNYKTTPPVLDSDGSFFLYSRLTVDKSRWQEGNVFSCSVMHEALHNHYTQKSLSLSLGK
light: B1 light with V2I, I4L, N44P
notes: Full-length human IgG4 (S241P L248E) / human kappa, expressed in NS0, Protein A purified; also called 3F1; not shown: human kappa light chain constant region
- amount of antibody required to inhibit approximately 50% to approximately 80% of rat CH50 hemolysis (rat C1q): ~60 ng
- Relative IC50 (human C1q [1]): 0.83 ratio to chimeric M1
- Relative IC50 (mouse C1q [6]): 1.91 ratio to chimeric M1
- IC50 (read off the curve) (human C1q [5]): ~0.3 µg/mL
- IC50 (read off the curve) (mouse C1q [7]): ~6 µg/mL

B8: humanized anti-C1q antibody VH4/Vκ4 (antibody, human IgG4)
heavy: not shown
light: B1 light with V2I, I4L, N44P
notes: as for B1
- Relative IC50 (human C1q [1]): 0.92 ratio to chimeric M1
- IC50 (read off the curve) (human C1q [3]): ~0.2 µg/mL

B11: humanized anti-C1q antibody VH3/Vκ1 (antibody, human IgG4)
heavy: not shown
light: B1 light with S10Y, S12A, A43T
notes: as for B1
- Relative IC50 (human C1q [1]): 0.65 ratio to chimeric M1
- IC50 (read off the curve) (human C1q [5]): ~0.2 µg/mL

B13: humanized anti-C1q antibody VH1/Vκ1 (antibody, human IgG4)
heavy: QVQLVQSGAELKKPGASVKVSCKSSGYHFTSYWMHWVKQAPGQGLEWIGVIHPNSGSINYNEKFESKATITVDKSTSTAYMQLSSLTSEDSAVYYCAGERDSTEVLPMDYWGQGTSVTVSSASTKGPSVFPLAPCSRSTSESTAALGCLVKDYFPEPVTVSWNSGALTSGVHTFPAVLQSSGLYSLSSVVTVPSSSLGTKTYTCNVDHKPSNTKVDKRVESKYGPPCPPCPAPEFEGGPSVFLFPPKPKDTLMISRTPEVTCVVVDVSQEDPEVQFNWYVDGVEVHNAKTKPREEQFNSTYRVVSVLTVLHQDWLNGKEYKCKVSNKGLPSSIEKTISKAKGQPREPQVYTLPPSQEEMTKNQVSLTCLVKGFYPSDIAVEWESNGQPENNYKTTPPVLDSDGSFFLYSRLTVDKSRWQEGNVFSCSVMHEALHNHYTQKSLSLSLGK
light: B1 light with S10Y, S12A, A43T
notes: Full-length human IgG4 (S241P L248E) / human kappa, expressed in NS0, Protein A purified; also called 2B12; not shown: human kappa light chain constant region
- amount of antibody required to inhibit 50% of human CH50 hemolysis (human C1q [8]): ~60 ng
- amount of antibody required to inhibit approximately 50% to approximately 80% of rat CH50 hemolysis (rat C1q): ~60 ng
- Relative IC50 (human C1q [1]): 0.9 ratio to chimeric M1
- Relative IC50 (mouse C1q [6]): 1.62 ratio to chimeric M1
- IC50 (read off the curve) (human C1q [4]): ~0.3 µg/mL
- IC50 (read off the curve) (mouse C1q [7]): ~5 µg/mL

B15: humanized anti-C1q antibody VH4/Vκ3 (antibody, human IgG4)
heavy: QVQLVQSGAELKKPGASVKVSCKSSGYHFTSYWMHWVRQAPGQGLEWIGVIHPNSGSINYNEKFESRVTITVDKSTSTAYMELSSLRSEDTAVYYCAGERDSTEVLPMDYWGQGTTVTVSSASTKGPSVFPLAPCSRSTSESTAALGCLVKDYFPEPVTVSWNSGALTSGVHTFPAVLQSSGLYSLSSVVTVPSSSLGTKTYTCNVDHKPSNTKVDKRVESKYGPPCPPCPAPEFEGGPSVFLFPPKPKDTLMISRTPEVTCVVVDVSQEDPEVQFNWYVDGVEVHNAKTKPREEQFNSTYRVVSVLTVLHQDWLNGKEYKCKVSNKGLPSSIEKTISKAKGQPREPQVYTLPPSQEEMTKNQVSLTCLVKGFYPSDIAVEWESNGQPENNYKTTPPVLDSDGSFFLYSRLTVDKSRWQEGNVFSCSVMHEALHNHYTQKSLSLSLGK
light: B1 light with N44P
notes: Full-length human IgG4 (S241P L248E) / human kappa, expressed in NS0, Protein A purified; also called 1D3; not shown: human kappa light chain constant region
- amount of antibody required to inhibit 50% of human CH50 hemolysis (human C1q [8]): ~60 ng
- amount of antibody required to inhibit approximately 50% to approximately 80% of rat CH50 hemolysis (rat C1q): ~60 ng
- Relative IC50 (human C1q [1]): 0.77 ratio to chimeric M1
- Relative IC50 (mouse C1q [6]): 1.84 ratio to chimeric M1
- IC50 (read off the curve) (human C1q [3]): ~0.2 µg/mL
- IC50 (read off the curve) (mouse C1q [7]): ~6 µg/mL

B16: humanized anti-C1q antibody VH2/Vκ4 (antibody, human IgG4)
heavy: not shown
light: B1 light with V2I, I4L, N44P
notes: as for B1
- Relative IC50 (human C1q [1]): 0.72 ratio to chimeric M1
- IC50 (read off the curve) (human C1q [2]): ~0.2 µg/mL

Second part, led by results:

- Relative IC50 (human C1q [1]): 0.84 ratio to chimeric M1
- IC50 (read off the curve) (human C1q [3]): ~0.2 µg/mL
B2: humanized anti-C1q antibody VH4/Vκ2 (antibody, human IgG4)
heavy: not shown
light: B1 light
notes: as for B1

- Relative IC50 (human C1q [1]): 0.91 ratio to chimeric M1
- IC50 (read off the curve) (human C1q [4]): ~0.3 µg/mL
B3: humanized anti-C1q antibody VH1/Vκ3 (antibody, human IgG4)
heavy: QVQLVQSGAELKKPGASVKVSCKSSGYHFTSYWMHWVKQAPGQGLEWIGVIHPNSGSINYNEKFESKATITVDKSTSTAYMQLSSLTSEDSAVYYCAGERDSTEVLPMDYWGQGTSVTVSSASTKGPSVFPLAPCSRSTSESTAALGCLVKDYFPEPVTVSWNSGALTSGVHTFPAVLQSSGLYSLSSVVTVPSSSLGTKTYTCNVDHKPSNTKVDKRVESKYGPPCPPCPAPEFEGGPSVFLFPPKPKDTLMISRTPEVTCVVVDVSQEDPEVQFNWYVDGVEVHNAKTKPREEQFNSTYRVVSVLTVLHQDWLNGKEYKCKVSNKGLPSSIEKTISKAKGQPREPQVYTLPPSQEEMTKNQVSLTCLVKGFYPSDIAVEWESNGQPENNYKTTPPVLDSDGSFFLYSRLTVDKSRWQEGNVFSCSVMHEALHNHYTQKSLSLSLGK
light: B1 light with N44P
notes: as for B1

- Relative IC50 (human C1q [1]): 0.82 ratio to chimeric M1
- IC50 (read off the curve) (human C1q [5]): ~0.3 µg/mL
B5: humanized anti-C1q antibody VH3/Vκ2 (antibody, human IgG4)
heavy: not shown
light: B1 light
notes: as for B1

- Relative IC50 (human C1q [1]): 0.75 ratio to chimeric M1
- IC50 (read off the curve) (human C1q [2]): ~0.2 µg/mL
B6: humanized anti-C1q antibody VH2/Vκ3 (antibody, human IgG4)
heavy: not shown
light: B1 light with N44P
notes: as for B1

- Relative IC50 (human C1q [1]): 1.15 ratio to chimeric M1
- IC50 (read off the curve) (human C1q [2]): ~0.3 µg/mL
B9: humanized anti-C1q antibody VH2/Vκ1 (antibody, human IgG4)
heavy: not shown
light: B1 light with S10Y, S12A, A43T
notes: as for B1

- Kd (human C1q [9]): 6.7 pM
- koff (human C1q [9]): 6.4e-06 s⁻¹
- kon (human C1q [9]): 960000 M⁻¹ s⁻¹
- Kd (human C1q [10]): 4.9 pM
- koff (human C1q [10]): 5.1e-06 s⁻¹
- kon (human C1q [10]): 1.1e+06 M⁻¹ s⁻¹
- Kd (human C1q [11]): 5.8 pM
- koff (human C1q [11]): 5.8e-06 s⁻¹
- kon (human C1q [11]): 1e+06 M⁻¹ s⁻¹
- Kd (human C1q [12]): 22700 pM
- Kd (human C1q [13]): 7300 pM
- kon (human C1q [14]): 200000 M⁻¹ s⁻¹
- kon (human C1q [15]): 16000 M⁻¹ s⁻¹
- koff (human C1q [16]): 4.6e-06 s⁻¹
- koff (human C1q [17]): 1.1e-07 s⁻¹
- Kd (human C1q [18]): 7.9 pM
- koff (human C1q [18]): 3.1e-07 s⁻¹
- kon (human C1q [18]): 39000 M⁻¹ s⁻¹
- Relative IC50 (human C1q [1]): 0.63 ratio to chimeric M1
- Relative IC50 (mouse C1q [6]): 1.5 ratio to chimeric M1
- IC50 (read off the curve) (human C1q [5]): ~0.2 µg/mL
- IC50 (read off the curve) (mouse C1q [7]): ~5 µg/mL
B10: humanized anti-C1q antibody VH3/Vκ3 (full-length IgG) (antibody)
heavy: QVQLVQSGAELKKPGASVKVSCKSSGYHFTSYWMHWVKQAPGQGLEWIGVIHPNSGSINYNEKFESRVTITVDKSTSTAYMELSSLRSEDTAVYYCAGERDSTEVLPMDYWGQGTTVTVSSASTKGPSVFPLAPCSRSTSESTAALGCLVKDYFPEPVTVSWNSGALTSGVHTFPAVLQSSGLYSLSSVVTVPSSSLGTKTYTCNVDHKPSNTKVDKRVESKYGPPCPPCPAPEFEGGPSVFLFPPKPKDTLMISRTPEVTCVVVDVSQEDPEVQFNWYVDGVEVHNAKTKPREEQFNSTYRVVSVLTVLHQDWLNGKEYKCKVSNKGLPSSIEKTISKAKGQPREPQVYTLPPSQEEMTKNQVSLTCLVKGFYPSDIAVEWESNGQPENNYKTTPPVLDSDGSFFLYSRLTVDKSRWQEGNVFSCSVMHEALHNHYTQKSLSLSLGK
light: B1 light with N44P
notes: Full-length human IgG4 (S241P L248E) / human kappa, expressed in NS0; also called IgG VH3/Vκ3; IgG-VH3/Vκ3; not shown: human kappa light chain constant region
- amount of antibody required to inhibit 50% of human CH50 hemolysis (human C1q [8]): ~60 ng
- amount of antibody required to inhibit approximately 50% to approximately 80% of rat CH50 hemolysis (rat C1q): ~60 ng

- Relative IC50 (human C1q [1]): 0.84 ratio to chimeric M1
- IC50 (read off the curve) (human C1q [4]): ~0.3 µg/mL
B12: humanized anti-C1q antibody VH1/Vκ2 (antibody, human IgG4)
heavy: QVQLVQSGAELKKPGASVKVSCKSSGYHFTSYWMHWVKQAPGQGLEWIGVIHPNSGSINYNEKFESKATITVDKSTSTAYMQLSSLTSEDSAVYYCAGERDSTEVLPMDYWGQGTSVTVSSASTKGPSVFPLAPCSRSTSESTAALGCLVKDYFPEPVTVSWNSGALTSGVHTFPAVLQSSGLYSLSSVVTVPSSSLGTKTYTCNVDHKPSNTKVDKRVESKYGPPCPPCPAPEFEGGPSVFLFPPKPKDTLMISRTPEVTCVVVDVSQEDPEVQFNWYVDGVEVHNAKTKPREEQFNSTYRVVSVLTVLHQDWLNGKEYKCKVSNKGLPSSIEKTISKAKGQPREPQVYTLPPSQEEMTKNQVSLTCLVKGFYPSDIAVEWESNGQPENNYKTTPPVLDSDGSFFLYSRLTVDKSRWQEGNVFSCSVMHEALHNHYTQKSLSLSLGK
light: B1 light
notes: as for B1

- Relative IC50 (human C1q [1]): 1.03 ratio to chimeric M1
- IC50 (read off the curve) (human C1q [3]): ~0.3 µg/mL
B14: humanized anti-C1q antibody VH4/Vκ1 (antibody, human IgG4)
heavy: not shown
light: B1 light with S10Y, S12A, A43T
notes: as for B1
